# Where a chain is given by its changes, count along the chain named. Numbers in names are those of the source.
# T1: maize leaf FNR (L‐FNR) (Zea mays, UniProt Q9SLP6)
# T1 construct: gene L-FNRI; recombinant mature leaf FNR, FAD flavoprotein, C-terminal Tyr314
# T1 sequence (Q9SLP6 42-355): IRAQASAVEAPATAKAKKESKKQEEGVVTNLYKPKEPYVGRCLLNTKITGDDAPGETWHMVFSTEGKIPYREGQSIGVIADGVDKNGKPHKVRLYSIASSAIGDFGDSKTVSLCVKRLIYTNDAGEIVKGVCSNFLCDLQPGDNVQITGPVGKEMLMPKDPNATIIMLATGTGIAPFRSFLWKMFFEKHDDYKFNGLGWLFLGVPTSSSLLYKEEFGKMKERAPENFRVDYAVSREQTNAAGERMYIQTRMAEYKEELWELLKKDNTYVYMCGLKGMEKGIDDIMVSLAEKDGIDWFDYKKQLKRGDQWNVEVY
# B1: maize leaf FNR (L‐FNR) (Zea mays) (protein)
# chain: T1 sequence (Q9SLP6 42-355)
# notes: recombinant mature leaf FNR, FAD flavoprotein, C-terminal Tyr314
# B2: maize leaf FNR (L‐FNR) (Zea mays; R276Q) (protein)
# chain: T1 sequence (Q9SLP6 42-355) with R235Q
# notes: as for B1
# B3: maize leaf FNR (L‐FNR) (Zea mays; Y355S) (protein)
# chain: T1 sequence (Q9SLP6 42-355) with Y314S
# notes: as for B1
# B4: maize leaf FNR (L‐FNR) (Zea mays; R285Q) (protein)
# chain: T1 sequence (Q9SLP6 42-355) with R244Q
# notes: as for B1
# Key:
# maize leaf FNR (L‐FNR) = target: T1, maize leaf FNR (L‐FNR); experiment: ITC of Fd I binding to FNR in presence of ligand; Fd-affinity chromatography; conditions: 0-500 μM NADP+ (ITC); 50 mM Tris/HCl, pH 7.5; 298 K; allosteric on Fd binding
# [1] = target: maize leaf ferredoxin-NADP+ reductase R244Q (maize); experiment: ITC; 500 uM Fd I in the syringe titrated into 50 uM L-FNR in the cell; 50 mM Tris/HCl pH 7.5, no NaCl, 298 K; one set of independent binding sites; 0 uM NADP+
# [2] = target: maize leaf ferredoxin-NADP+ reductase Y314S (maize); experiment: as above
# [3] = target: maize leaf ferredoxin-NADP+ reductase, wild-type (maize); experiment: as above
# [4] = target: maize leaf ferredoxin-NADP+ reductase R235Q (maize); experiment: as above
# [5] = target: maize leaf ferredoxin-NADP+ reductase R244Q (maize); experiment: ITC; 500 uM Fd I in the syringe titrated into 50 uM L-FNR in the cell; 50 mM Tris/HCl pH 7.5, no NaCl, 298 K; one set of independent binding sites; 50 uM NADP+
# [6] = target: maize leaf ferredoxin-NADP+ reductase Y314S (maize); experiment: as above
# [7] = target: maize leaf ferredoxin-NADP+ reductase, wild-type (maize); experiment: as above
# [8] = target: maize leaf ferredoxin-NADP+ reductase R235Q (maize); experiment: as above
# [9] = target: maize leaf ferredoxin-NADP+ reductase R244Q (maize)
# [10] = target: maize leaf ferredoxin-NADP+ reductase Y314S (maize)
# [11] = target: maize leaf ferredoxin-NADP+ reductase, wild-type (maize)
# [12] = target: maize leaf ferredoxin-NADP+ reductase R235Q (maize)
# [13] = target: maize leaf ferredoxin-NADP+ reductase R244Q (maize); experiment: ITC; 500 uM Fd I in the syringe titrated into 50 uM L-FNR in the cell; 50 mM Tris/HCl pH 7.5, no NaCl, 298 K; one set of independent binding sites; 500 uM NADP+
# [14] = target: maize leaf ferredoxin-NADP+ reductase Y314S (maize); experiment: as above
# [15] = target: maize leaf ferredoxin-NADP+ reductase, wild-type (maize); experiment: as above
# [16] = target: maize leaf ferredoxin-NADP+ reductase R235Q (maize); experiment: as above
# [17] = substrate: NC(=O)C1=CN([C@@H]2O[C@H](COP(=O)(O)OP(=O)(O)OC[C@H]3O[C@@H](n4cnc5c(N)ncnc54)[C@H](OP(=O)(O)O)[C@@H]3O)[C@@H](O)[C@H]2O)C=CC1; experiment: NADPH-dependent diaphorase assay; assay type: biochemical, Zea mays; conditions: DCPIP as electron acceptor
# Excerpt: NADPH-dependent diaphorase assay on maize leaf FNR (L‐FNR)
molecule,measurement,setting,value
NC(=O)c1ccc[n+]([C@@H]2O[C@H](COP(=O)(O)OP(=O)(O)OC[C@H]3O[C@@H](n4cnc5c(N)ncnc54)[C@H](OP(=O)(O)O)[C@@H]3O)[C@@H](O)[C@H]2O)c1 [NADP^+],ITC of Fd I binding to FNR in presence of ligand; Fd-affinity chromatography,maize leaf FNR (L‐FNR),The resulting dissociation constant (K d) increased by addition of NADP^+ into the titration reaction
maize leaf ferredoxin I (from UniProt P27787 53-150) (natural protein),Kd,[1],0.76 µM
same,dH,[1],8.3 kcal/mol
same,stoichiometry N,[1],0.7
same,Kd,[2],2.2 µM
same,dH,[2],5.6 kcal/mol
same,stoichiometry N,[2],0.7
same,Kd,[3],1.2 µM
same,dH,[3],9.8 kcal/mol
same,stoichiometry N,[3],0.7
same,Kd,[4],0.87 µM
same,dH,[4],8.3 kcal/mol
same,stoichiometry N,[4],0.7
same,Kd,[5],0.79 µM
same,dH,[5],7.4 kcal/mol
same,stoichiometry N,[5],0.8
same,Kd,[6],2.6 µM
same,dH,[6],4.3 kcal/mol
same,stoichiometry N,[6],0.7
same,Kd,[7],1.6 µM
same,dH,[7],8.8 kcal/mol
same,stoichiometry N,[7],0.7
same,Kd,[8],0.78 µM
same,dH,[8],7.3 kcal/mol
same,stoichiometry N,[8],0.7
same,"Km for Fd in NADPH-dependent cyt c reduction, at 50 uM, 250 uM, 500 uM and 1 mM NADPH (0.75 to 6.9 uM)",[9],6.9 µM
same,"Km for Fd in NADPH-dependent cyt c reduction, at 50 uM, 250 uM and 500 uM NADPH (17, 13, 18 uM; not determined at 1 mM)",[10],18 µM
same,"apparent Km for Fd in NADPH-dependent cyt c reduction, at 50 uM, 250 uM, 500 uM and 1 mM NADPH (3.5 to 44 uM)",[11],44 µM
same,"Km for Fd in NADPH-dependent cyt c reduction, at 50 uM, 250 uM, 500 uM and 1 mM NADPH (0.30 to 5.0 uM)",[12],5 µM
same,Kd,[13],1.1 µM
same,dH,[13],5.8 kcal/mol
same,stoichiometry N,[13],1
same,Kd,[14],2.3 µM
same,dH,[14],3.6 kcal/mol
same,stoichiometry N,[14],0.7
same,Kd,[15],3.7 µM
same,dH,[15],6.7 kcal/mol
same,stoichiometry N,[15],0.8
same,Kd,[16],1.3 µM
same,dH,[16],6.3 kcal/mol
same,stoichiometry N,[16],0.9
B1,Km,[17],46 ± 3 µM
same,kcat,[17],76 ± 14 s⁻¹
B2,Km,[17],500 ± 120 µM
same,kcat,[17],60 ± 7 s⁻¹
B3,Km,[17],0.27 ± 0.08 µM
same,kcat,[17],41 ± 6 s⁻¹
B4,Km,[17],310 ± 60 µM
same,kcat,[17],139 ± 13 s⁻¹

# Source: article PMC6886308, “NADP(H) allosterically regulates the interaction between ferredoxin and ferredoxin‐NADP^+ reductase” (FEBS Open Bio, 2019)
